Values quoted from earlier work, collected in publication PMC8859281.

Legend:
[1] = target: prokineticin receptor 2 (Homo sapiens) (UniProt Q8NFJ6)
[2] = target: prokineticin receptor 1 (Homo sapiens) (UniProt Q8TCW9)
κ-opioid receptor = κ-opioid receptor (UniProt P41145)
κ-opioid receptor, sequence (P41145 whole entry): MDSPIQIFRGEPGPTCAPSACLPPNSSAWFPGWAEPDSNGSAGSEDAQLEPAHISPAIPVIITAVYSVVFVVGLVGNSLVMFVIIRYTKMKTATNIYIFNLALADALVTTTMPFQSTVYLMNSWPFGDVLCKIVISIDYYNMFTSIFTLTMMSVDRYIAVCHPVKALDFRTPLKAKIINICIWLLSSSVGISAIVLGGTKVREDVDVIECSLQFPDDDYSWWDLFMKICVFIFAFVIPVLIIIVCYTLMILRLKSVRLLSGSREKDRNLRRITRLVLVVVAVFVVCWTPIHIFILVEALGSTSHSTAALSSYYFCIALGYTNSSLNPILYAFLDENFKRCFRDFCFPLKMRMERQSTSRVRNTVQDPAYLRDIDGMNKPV

MIT1, sequence (P25687 whole entry): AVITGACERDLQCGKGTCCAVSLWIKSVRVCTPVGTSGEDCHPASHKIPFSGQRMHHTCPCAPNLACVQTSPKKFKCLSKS
prokineticin receptor 1 (Homo sapiens), sequence (Q8TCW9 whole entry): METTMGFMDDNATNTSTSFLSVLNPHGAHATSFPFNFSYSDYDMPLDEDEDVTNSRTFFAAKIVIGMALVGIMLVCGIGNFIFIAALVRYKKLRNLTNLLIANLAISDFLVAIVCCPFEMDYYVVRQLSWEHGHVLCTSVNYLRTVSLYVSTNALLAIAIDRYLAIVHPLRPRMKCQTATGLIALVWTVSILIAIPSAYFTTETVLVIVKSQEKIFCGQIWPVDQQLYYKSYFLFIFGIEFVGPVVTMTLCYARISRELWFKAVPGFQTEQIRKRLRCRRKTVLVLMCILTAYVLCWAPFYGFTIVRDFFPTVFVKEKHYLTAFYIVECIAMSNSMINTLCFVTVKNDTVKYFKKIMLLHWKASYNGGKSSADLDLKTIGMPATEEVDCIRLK
prokineticin receptor 2 (Homo sapiens), sequence (Q8NFJ6 whole entry): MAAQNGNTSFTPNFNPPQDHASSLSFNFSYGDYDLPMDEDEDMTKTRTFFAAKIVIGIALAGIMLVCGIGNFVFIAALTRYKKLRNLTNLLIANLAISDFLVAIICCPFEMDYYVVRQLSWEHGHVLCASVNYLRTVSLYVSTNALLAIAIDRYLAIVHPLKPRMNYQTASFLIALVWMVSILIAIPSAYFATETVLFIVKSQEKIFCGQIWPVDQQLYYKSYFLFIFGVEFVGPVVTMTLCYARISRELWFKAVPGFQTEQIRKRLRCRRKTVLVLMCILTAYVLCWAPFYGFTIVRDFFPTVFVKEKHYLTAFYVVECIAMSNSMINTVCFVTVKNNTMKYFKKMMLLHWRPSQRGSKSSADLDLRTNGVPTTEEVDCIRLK

Row | Substance | Ki [1] | Ki [2] | Ki (κ-opioid receptor)
1 | MIT1 (from UniProt P25687) | 0.67 nM | 4.1 nM | –
2 | dynorphin A 1-17 (from UniProt P01213) | – | – | 0.28 nM
